Measurements: article PMC2775743, “Structural insights into the substrate tunnel of Saccharomyces cerevisiae carbonic anhydrase Nce103” (BMC Structural Biology, 2009)

B1: Nce103ΔN50 (enzyme, S. cerevisiae, UniProt P53615 51-221, looked up)
chain: HTLFIGCSDSRYNENCLGVLPGEVFTWKNVANICHSEDLTLKATLEFAIICLKVNKVIICGHTDCGGIKTCLTNQREALPKVNCSHLYKYLDDIDTMYHEESQNLIHLKTQREKSHYLSHCNVKRQFNRIIENPTVQTAVQNGELQVYGLLYNVEDGLLQTVSTYTKVTPK
notes: Carbonic anhydrase Nce103 (β-class), S. cerevisiae strain S288C, ORF YNL036W, residues His51-Lys221; the tag is probably N-terminal here too; also called truncated NCE103 without the N-terminal 50 residues
B2: Nce103ΔN13 (enzyme, S. cerevisiae, UniProt P53615 14-221, looked up)
chain: HNSNLQDILAANAKWASQMNNIQPTLFPDHNAKGQSPHTLFIGCSDSRYNENCLGVLPGEVFTWKNVANICHSEDLTLKATLEFAIICLKVNKVIICGHTDCGGIKTCLTNQREALPKVNCSHLYKYLDDIDTMYHEESQNLIHLKTQREKSHYLSHCNVKRQFNRIIENPTVQTAVQNGELQVYGLLYNVEDGLLQTVSTYTKVTPK
notes: Carbonic anhydrase Nce103 (β-class), S. cerevisiae strain S288C, ORF YNL036W, without the N-terminal 13 residues; residues His14 to Lys221; One zinc ion for each subunit; In the crystal the His tag, His14-Ser16 and Pro41-Gln48 are not seen in the density; also called truncated NCE103 without the N-terminal 13 residues; β-CA Nce103/YNL036W; source: for crystallization in 20 mM acetate buffer, pH …

What was measured:
[1] = biological target: the molecule itself; assay: not stated; oligomeric state in solution, noted during purification (Ni2+ affinity, Superdex 75 gel filtration); how it was determined is not told
[2] = biological target: the molecule itself; assay: crystal structure; Nce103ΔN13, hanging drop vapor diffusion at 16°C; 20% PEG4000, 0.1 M sodium citrate pH 5.6, 0.1 M sodium acetate, 20% ethylene glycol; two molecules in the asymmetric unit; 2.04 Å

Protein | stoichiometry N [1] | stoichiometry N [2]
B1 | 2 | –
B2 | – | 2
